Patent US20250195629A1, “SITE-SPECIFIC BRAIN THERAPEUTICS” (William Marsh Rice University, priority 2023, published 2025)

Legend:
[1] = system: c-Fos+ cells in the CPu; test: c-Fos+ cell count at the CPu after behavior test; type: in vivo, mouse
From the text: To quantify the c-Fos-positive cells related to FIG. 11, the stained coronal sections were initially imaged using a 4× objective in DAPI (nuclei, not shown) and far-red (c-Fos, shown in purple) channels. Within the left striatum region, one or more specific 3×3 binned square areas were selected corresponding to the highest observed AADC fluorescence in the adjacent AADC-stained section. Subsequently, images of these areas were captured using a 40× objective. Corresponding contralateral areas in the right striatum were also captured.
In FIG. 7, we applied the following brightness (white) thresholds for the corresponding channels: 6045 (DAPI, nuclei, not shown), 15,000 (Cy3, D1R), 16,000 (green, D2R), and 6045 (far-red, c-Fos), with a gamma value of 1. In FIG. 11, we applied a Brightness (White) threshold of 6045 for both DAPI (nuclei, not shown) and far-red (c-Fos) channels, with a Gamma value of 1. The images were then overlayed, and the c-Fos+ cells were manually counted. Similarly, the GFAP+ cells were manually counted, as shown in FIG. 15c and FIG. 17, by applying a Brightness (White) threshold of 5686 and a Gamma value of 1 for both the DAPI (nuclei) and far-red (GFAP, purple) channels.
To address potential bias and validate our counting approach, all c-Fos staining sites from mice in FIG. 11 were independently counted by 4 scorers (A. M., Z. H., C. H. and R. J.). C. […]

[2] = AADC immunostaining, AADC-IKVAV retention and spatial targeting after FUS-BBBO; type: in vivo, mouse; settings: for local AADC levels (AADC+ pixels) in FUS-targeted region vs FUS alone control group: 250 mg/kg i.v., one FUS site left CPu, 2 days
Protocol: c-Fos […] injection of recombinant protein AADC-IKVAV (SEQ ID NO: 23) (20 mg/mL, 250 mg/kg) or equivalent volume of PBS buffer (n=5 mice for FUS alone+L-DOPA group). After 48 h, the mice were given a single dose of L-DOPA (0.1 mg/mL, 2 mg/kg, i.p.; Spectrum Chemical) 10 min after injection of carbidopa (1 mg/mL, 25 mg/kg, i.p.; Sigma-Aldrich), both of which were dissolved in sterile saline containing 2.5 and 0.125 mg/mL ascorbic acid. […] After 2 hours, the mice were euthanized by transcardial perfusion, and their brains were extracted and sliced into 50 μm coronal sections following 24-48 hours of fixation.
Immunostaining of AADC was performed as follows: (1) incubate the brain sections in 1× antigen retrieval solution (catalog number: 00-4955-58; Invitrogen) overnight in a 60° C. water bath; (2) block sections in 5% normal goat serum (SouthernBiotech) and 0.3% Triton-X solution in PBS for 1 h at room temperature; (3) incubate with primary rabbit anti-AADC antibody (1:500, 10166-1-AP, Proteintech) for staining AADC-IKVAV (SEQ ID NO: 23) in blocking buffer for 2 h at room temperature; (4) after washing three times in PBS (15 min each, the same as below), incubate with secondary goat anti-rabbit antibody conjugated to Alexa Fluor 647 (1:750, A-21245, ThermoFisher) in blocking buffer for 2 h at room temperature; (5) after washing three times, mount sections onto glass slides using the mounting media (Vector Laboratories) with DAPI and air-dry overnight in dark before imaging.
To analyze AADC-IKVAV (SEQ ID NO: 23) retention, as depicted in FIG. 7 and FIG. 11, stained coronal sections within the striatum were captured using a ×4 objective in DAPI (nuclei, not shown) and far-red (AADC) channels. Among these sections, the one displaying the most intense AADC fluorescence was chosen as the representative for each mouse. Subsequently, the selected sections were further examined at a higher magnification (×40 objective) for quantitative comparison. […] This area was imaged using a ×40 objective. Additionally, corresponding contralateral areas in the right striatum were also imaged.
To quantify the AADC-IKVAV (SEQ ID NO: 23) retention in the FUS targeted region, as shown in FIG. 7 and FIG. 11, the histological images were analyzed using ImageJ (version 1.53t). Specifically, the average pixel intensity of the AADC-IKVAV (SEQ ID NO: 23) channel image captured on the contralateral side of each representative section was calculated to establish the background for that section.
Immediately afterwards, the mice were sacrificed for immunohistochemical analysis of AADC-IKVAV (SEQ ID NO: 23) retention as already mentioned. The section displaying the strongest AADC fluorescence was selected as the representative for each mouse, and its adjacent section was stained separately to identify c-Fos positive cells. […]

[3] = behavior study, FUS+AADC-IKVAV+L-DOPA, two FUS sites

N[C@@H](Cc1ccc(O)c(O)c1)C(=O)O [L-DOPA, reference compound]
change in ipsilateral c-Fos-positive cells vs contralateral site ([1]; untreated mice or FUS alone, L-DOPA 2 mg/kg i.p.): no significant changes

B1: AADC-IKVAV: aromatic-L-amino-acid decarboxylase (AADC) protein fused with short peptide IKVAV (SEQ ID NO: 23); CDS SEQ ID NO: 21 (protein)
chain: MRGSHHHHHHGMASMTGGQQMGRDLYDDDDKDPMNASEFRRRGKEMVDYMANYMEGIEGRQVYPDVEPGYLRPLIPAAAPQEPDTFEDIINDVEKIIMPGVTHWHSPYFFAYFPTASSYPAMLADMLCGAIGCIGFSWAASPACTELETVMMDWLGKMLELPKAFLNEKAGEGGGVIQGSASEATLVALLAARTKVIHRLQAASPELTQAAIMEKLVAYSSDQAHSSVERAGLIGGVKLKAIPSDGNFAMRASALQEALERDKAAGLIPFFMVATLGTTTCCSFDNLLEVGPICNKEDIWLHVDAAYAGSAFICPEFRHLLNGVEFADSFNFNPHKWLLVNFDCSAMWVKKRTDLTGAFRLDPTYLKHSHQDSGLITDYRHWQIPLGRRFRSLKMWFVFRMYGVKGLQAYIRKHVQLSHEFESLVRQDPRFEICVEVILGLVCFRLKGSNKVNEALLQRINSAKKIHLVPCHLRDKFVLRFAICSRTVESAHVQRAWEHIKELAADVLRAEREGGSGSSGGSGGSGGSGIKVAV
modifications: misc_feature 1..1602 Synthetic: AADC-IKVAV
local AADC levels (AADC+ pixels) in FUS-targeted region vs FUS alone control group ([2]; with subsequent L-DOPA 2 mg/kg i.p.): 38.5 (±6.1) fold
local AADC levels (AADC+ pixels) in FUS-targeted region vs FUS alone control group ([2]; without L-DOPA): 41.8 (±8.9) fold
mice with detectable retention within the CPu ([2]; 11 mice receiving AADC-IKVAV): 73%
levels of local AADC (AADC+ pixels, left CPu) vs FUS alone group [2, 3]: 13.3 (±2.8) fold
levels of local AADC (AADC+ pixels, left CPu) vs untreated group [2, 3]: 93.3(±19.5) fold
presence of delivered enzyme in the FUS-targeted area by immunostaining ([2]; behavior study, two FUS sites, 2 days after delivery): present in the FUS-targeted area in all mice
mice with efficient retention within 100 μm of the CPu ([2]; remaining mice of 11): 27%
increase in ipsilateral c-Fos-positive cells vs contralateral site ([1]; RAID-treated mice, FUS+AADC-IKVAV+L-DOPA, counted by A. M. and Z. H.): 5.7(±1.8) fold
